According to paper PMC3534962:

What was measured:
[1] = co-immunoprecipitation with Flag-PFK1; conditions: glycan gained; control: WT Flag-PFK1 without OGT overexpression
[2] = native gel electrophoresis of immunopurified Flag-PFK1; conditions: glycan gained; control: Flag-PFK1 from untreated 293T cells
[3] = glycolytic rate with and without OGT overexpression; conditions: glycan lost; control: WT PFK1 H1299 knock-in cells
[4] = monochlorobimane fluorimetric GSH assay; conditions: glycan lost; control: WT PFK1 H1299 knock-in cells
[5] = GSH level under hypoxic conditions; conditions: glycan lost; control: WT PFK1 H1299 knock-in cells, hypoxia
[6] = proliferation with and without OGT overexpression; conditions: glycan lost; control: WT PFK1 H1299 knock-in cells, hypoxia
[7] = untargeted flow-injection mass spectrometry metabolite profiling; conditions: glycan lost; control: WT PFK1 H1299 knock-in cells
colorimetric NADPH assay = conditions: glycan lost; control: WT PFK1 H1299 knock-in cells
[8] = co-immunoprecipitation after OGT overexpression; conditions: glycan lost; control: WT Flag-PFK1
[9] = [1,2-13C]-glucose labelling, LC-MS; conditions: glycan lost; control: WT PFK1 H1299 knock-in cells
[10] = NADPH level under hypoxic conditions; conditions: glycan lost; control: WT PFK1 H1299 knock-in cells, hypoxia
[11] = 14CO2 release from [1-14C]- vs [6-14C]-glucose; conditions: glycan lost; control: WT PFK1 H1299 knock-in cells
[12] = lactate production with and without OGT overexpression; conditions: glycan lost; control: WT PFK1 H1299 knock-in cells

B1: phosphofructokinase 1 (PFK1): OGT overexpression (protein)
parent chain: MAAVDLEKLRASGAGKAIGVLTSGGDAQGMNAAVRAVTRMGIYVGAKVFLIYEGYEGLVEGGENIKQANWLSVSNIIQLGGTIIGSARCKAFTTREGRRAAAYNLVQHGITNLCVIGGDGSLTGANIFRSEWGSLLEELVAEGKISETTARTYSHLNIAGLVGSIDNDFCGTDMTIGTDSALHRIMEVIDAITTTAQSHQRTFVLEVMGRHCGYLALVSALASGADWLFIPEAPPEDGWENFMCERLGETRSRGSRLNIIIIAEGAIDRNGKPISSSYVKDLVVQRLGFDTRVTVLGHVQRGGTPSAFDRILSSKMGMEAVMALLEATPDTPACVVTLSGNQSVRLPLMECVQMTKEVQKAMDDKRFDEATQLRGGSFENNWNIYKLLAHQKPPKEKSNFSLAILNVGAPAAGMNAAVRSAVRTGISHGHTVYVVHDGFEGLAKGQVQEVGWHDVAGWLGRGGSMLGTKRTLPKGQLESIVENIRIYGIHALLVVGGFEAYEGVLQLVEARGRYEELCIVMCVIPATISNNVPGTDFSLGSDTAVNAAMESCDRIKQSASGTKRRVFIVETMGGYCGYLATVTGIAVGADAAYVFEDPFNIHDLKVNVEHMTEKMKTDIQRGLVLRNEKCHDYYTTEFLYNLYSSEGKGVFDCRTNVLGHLQQGGAPTPFDRNYGTKLGVKAMLWLSEKLREVYRKGRVFANAPDSACVIGLKKKAVAFSPVTELKKDTDFEHRMPREQWWLSLRLMLKMLAQYRISMAAYVSGELEHVTRRTLSMDKGF
- oligomerisation [1]: decreases
- oligomerisation [2]: decreases

B2: phosphofructokinase 1 (PFK1): S529A (protein)
parent chain: MAAVDLEKLRASGAGKAIGVLTSGGDAQGMNAAVRAVTRMGIYVGAKVFLIYEGYEGLVEGGENIKQANWLSVSNIIQLGGTIIGSARCKAFTTREGRRAAAYNLVQHGITNLCVIGGDGSLTGANIFRSEWGSLLEELVAEGKISETTARTYSHLNIAGLVGSIDNDFCGTDMTIGTDSALHRIMEVIDAITTTAQSHQRTFVLEVMGRHCGYLALVSALASGADWLFIPEAPPEDGWENFMCERLGETRSRGSRLNIIIIAEGAIDRNGKPISSSYVKDLVVQRLGFDTRVTVLGHVQRGGTPSAFDRILSSKMGMEAVMALLEATPDTPACVVTLSGNQSVRLPLMECVQMTKEVQKAMDDKRFDEATQLRGGSFENNWNIYKLLAHQKPPKEKSNFSLAILNVGAPAAGMNAAVRSAVRTGISHGHTVYVVHDGFEGLAKGQVQEVGWHDVAGWLGRGGSMLGTKRTLPKGQLESIVENIRIYGIHALLVVGGFEAYEGVLQLVEARGRYEELCIVMCVIPATISNNVPGTDFSLGSDTAVNAAMESCDRIKQSASGTKRRVFIVETMGGYCGYLATVTGIAVGADAAYVFEDPFNIHDLKVNVEHMTEKMKTDIQRGLVLRNEKCHDYYTTEFLYNLYSSEGKGVFDCRTNVLGHLQQGGAPTPFDRNYGTKLGVKAMLWLSEKLREVYRKGRVFANAPDSACVIGLKKKAVAFSPVTELKKDTDFEHRMPREQWWLSLRLMLKMLAQYRISMAAYVSGELEHVTRRTLSMDKGF
- other: OGT-induced decrease in glycolytic rate, other: percent decrease [3]: abolishes
- other: OGT-induced increase in GSH, fold_change [4]: decreases
- other: cellular GSH level [5]: decreases
- other: OGT-induced increase in proliferation [6]: abolishes
- other: steady-state metabolite concentrations [7]: decreases
- other: OGT-induced increase in NADPH, fold_change (colorimetric NADPH assay): abolishes
- other: OGT-induced loss of subunit co-immunoprecipitation [8]: abolishes
- other: OGT-induced increase in PPP flux, fold_change [9]: abolishes
- other: cellular NADPH level [10]: decreases
- other: OGT-induced increase in PPP flux [11]: abolishes
- other: OGT-induced decrease in lactate production, other: percent decrease [12]: abolishes

B3: phosphofructokinase 1 (PFK1): PUGNAc (protein)
parent chain: MAAVDLEKLRASGAGKAIGVLTSGGDAQGMNAAVRAVTRMGIYVGAKVFLIYEGYEGLVEGGENIKQANWLSVSNIIQLGGTIIGSARCKAFTTREGRRAAAYNLVQHGITNLCVIGGDGSLTGANIFRSEWGSLLEELVAEGKISETTARTYSHLNIAGLVGSIDNDFCGTDMTIGTDSALHRIMEVIDAITTTAQSHQRTFVLEVMGRHCGYLALVSALASGADWLFIPEAPPEDGWENFMCERLGETRSRGSRLNIIIIAEGAIDRNGKPISSSYVKDLVVQRLGFDTRVTVLGHVQRGGTPSAFDRILSSKMGMEAVMALLEATPDTPACVVTLSGNQSVRLPLMECVQMTKEVQKAMDDKRFDEATQLRGGSFENNWNIYKLLAHQKPPKEKSNFSLAILNVGAPAAGMNAAVRSAVRTGISHGHTVYVVHDGFEGLAKGQVQEVGWHDVAGWLGRGGSMLGTKRTLPKGQLESIVENIRIYGIHALLVVGGFEAYEGVLQLVEARGRYEELCIVMCVIPATISNNVPGTDFSLGSDTAVNAAMESCDRIKQSASGTKRRVFIVETMGGYCGYLATVTGIAVGADAAYVFEDPFNIHDLKVNVEHMTEKMKTDIQRGLVLRNEKCHDYYTTEFLYNLYSSEGKGVFDCRTNVLGHLQQGGAPTPFDRNYGTKLGVKAMLWLSEKLREVYRKGRVFANAPDSACVIGLKKKAVAFSPVTELKKDTDFEHRMPREQWWLSLRLMLKMLAQYRISMAAYVSGELEHVTRRTLSMDKGF
- oligomerisation [2]: decreases
